{"source": "patent US20190322705A1", "about": "(NORWEGIAN UNIVERSITY OF LIFE SCIENCES, published 2019)", "experiment_in_all_cases": "cell-based or functional assay", "key": {"[1]": {"target": "RseP of E. faecalis Y24>A, expressed in S. pneumoniae ms4 (Enterococcus faecalis) (UniProt Q9RPP2)"}, "[2]": {"target": "RseP of E. faecalis H18>A, expressed in S. pneumoniae ms1 (Enterococcus faecalis) (UniProt Q9RPP2)"}, "[3]": {"target": "RseP of E. faecalis HExxH>AAxxA, expressed in S. pneumoniae ms5 (Enterococcus faecalis) (UniProt Q9RPP2)"}, "[4]": {"target": "RseP of E. faecalis H22>A, expressed in S. pneumoniae ms3 (Enterococcus faecalis) (UniProt Q9RPP2)"}, "[5]": {"target": "RseP of E. faecalis LMGT3358 (WT rseP), expressed in S. pneumoniae ds220 (Enterococcus faecalis) (UniProt Q9RPP2)"}, "[6]": {"target": "RseP of E. faecalis E19>A, expressed in S. pneumoniae ms2 (Enterococcus faecalis) (UniProt Q9RPP2)"}, "[7]": {"target": "T1, RseP of E. faecalis HExxH>AAxxA, expressed in S. pneumoniae ms5 (Enterococcus faecalis, UniProt Q9RPP2 1-422)", "T1 sequence": "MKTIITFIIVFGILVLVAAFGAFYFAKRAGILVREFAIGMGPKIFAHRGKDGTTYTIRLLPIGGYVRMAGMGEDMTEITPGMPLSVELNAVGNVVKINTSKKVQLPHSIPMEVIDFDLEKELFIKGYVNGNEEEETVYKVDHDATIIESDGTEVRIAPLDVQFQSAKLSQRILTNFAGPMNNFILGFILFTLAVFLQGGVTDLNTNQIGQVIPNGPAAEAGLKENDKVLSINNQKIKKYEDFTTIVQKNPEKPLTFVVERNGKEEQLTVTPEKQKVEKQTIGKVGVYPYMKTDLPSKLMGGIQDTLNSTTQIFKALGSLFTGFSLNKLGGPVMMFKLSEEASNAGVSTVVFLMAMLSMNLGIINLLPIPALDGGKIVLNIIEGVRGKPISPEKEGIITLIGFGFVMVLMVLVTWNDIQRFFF"}}}
{"molecule": "LsbB (peptide)", "values": [{"measurement": "MIC (nM), S. pneumoniae ms4", "setting": "[1]", "value": "> 7000", "unit": "nM"}, {"measurement": "MIC (nM), S. pneumoniae ms1", "setting": "[2]", "value": "> 7000", "unit": "nM"}, {"measurement": "MIC (nM), S. pneumoniae ms5", "setting": "[3]", "value": "> 7000", "unit": "nM"}, {"measurement": "MIC (nM), S. pneumoniae ms3", "setting": "[4]", "value": "> 7000", "unit": "nM"}, {"measurement": "MIC (nM), S. pneumoniae ds220 induced", "setting": "[5]", "value": "> 7000", "unit": "nM"}, {"measurement": "MIC (nM), S. pneumoniae ms2", "setting": "[6]", "value": "> 7000", "unit": "nM"}]}
{"molecule": "MLAKIKAMIKKFPNPYTLAAKLTTYEINWYKQQYGRYPWERPVA", "note": "[EntEJ97]", "values": [{"measurement": "fold resistance against the WT RseP strain", "setting": "[7]", "value": 30, "unit": "times"}]}
